± gives the standard deviation of the averaged measurements.

The record followed here is the supplement of paper PMC11246515.

The data set in a line: total protein half-life in vivo (active degradation + dilution); higher = more stable protein.
[1] abbreviates: E. coli NCM3722 delta-clpP delta-lon delta-hslV, growth: N-lim chemostat, doubling time 6 h.
Where [2] appears, read: E. coli NCM3722 delta-clpP, growth: N-lim chemostat, doubling time 6 h.
Where [3] appears, read: E. coli NCM3722 delta-hslV, growth: N-lim chemostat, doubling time 6 h.
[4] abbreviates: E. coli NCM3722 delta-lon, growth: N-lim chemostat, doubling time 6 h.
Where [5] appears, read: E. coli NCM3722 delta-smpB, growth: N-lim chemostat, doubling time 6 h.
Setting [6] is: wild type E. coli NCM3722, growth: C-lim chemostat, doubling time 3 h.
Where [7] appears, read: wild type E. coli NCM3722, growth: C-lim chemostat, doubling time 6 h.
Where [8] appears, read: wild type E. coli NCM3722, growth: C-lim chemostat, doubling time 12 h.
The mark [9] stands for this setting: wild type E. coli NCM3722, growth: N-lim chemostat, doubling time 6 h.
[10] abbreviates: wild type E. coli NCM3722, growth: N-lim chemostat, doubling time 12 h.
[11] abbreviates: wild type E. coli NCM3722, growth: P-lim chemostat, doubling time 6 h.
The mark [12] stands for this setting: wild type E. coli NCM3722, growth: P-lim chemostat, doubling time 12 h.

As to “MAQQTPLYEQHTLCGARMVDFHGWMMPLHYGSQIDEHHAVRTDAGMFDVSHMTIVDLRGSRTREFLRYLLANDVAKLTKSGKALYSGMLNASGGVIDDLIVYYFTEDFFRLVVNSATREKDLSWITQHAEPFGIEITVRDDLSMIAVQGPNAQAKAATLFNDAQRQAVEGMKPFFGVQAGDLFIATTGYTGEAGYEIALPNEKAADFWRALVEAGVKPCGLGARDTLRLEAGMNLYGQEMDETISPLAANMGWTIAWEPADRDFIGREALEVQREHGTEKLVGLVMTEKGVLRNELPVRFTDAQGNQHEGIITSGTFSPTLGYSIALARVPEGIGETAIVQIRNREMPVKVTKPVFVRNGKAVA”, the “total protein half-life in vivo” value is, setting by setting: under setting [1], 4.25 ± 0.29 h; under setting [2], 3.94 ± 0.048 h; under setting [3], 4.22 ± 0.35 h; under setting [4], 4.16 ± 0.17 h; under setting [5], 3.94 ± 0.068 h; under setting [6], 3.01 ± 0.22 h. The “total protein half-life in vivo” value under setting [7] stood at 5.71 ± 0.81 h; the “total protein half-life in vivo” value under setting [8] amounted to 10.5 ± 0.62 h; the “total protein half-life in vivo” value under setting [9] came to 3.81 ± 0.2 h; the “total protein half-life in vivo” value under setting [10] is 6.76 ± 0.92 h; the “total protein half-life in vivo” value under setting [11] was 5.88 ± 0.12 h; the “total protein half-life in vivo” value under setting [12] was found to be 11.4 ± 0.68 h.
On to “MNMFFRLTALAGLLAIAGQTFAVEDITRADQIPVLKEETQHATVSERVTSRFTRSHYRQFDLDQAFSAKIFDRYLNLLDYSHNVLLASDVEQFAKKKTELGDELRSGKLDVFYDLYNLAQKRRFERYQYALSVLEKPMDFTGNDTYNLDRSKAPWPKNEAELNALWDSKVKFDELSLKLTGKTDKEIRETLTRRYKFAIRRLAQTNSEDVFSLAMTAFAREIDPHTNYLSPRNTEQFNTEMSLSLEGIGAVLQMDDDYTVINSMVAGGPAAKSKAISVGDKIVGVGQTGKPMVDVIGWRLDDVVALIKGPKGSKVRLEILPAGKGTKTRTVTLTRERIRLEDRAVKMSVKTVGKEKVGVLDIPGFYVGLTDDVKVQLQKLEKQNVSSVIIDLRSNGGGALTEAVSLSGLFIPAGPIVQVRDNNGKVREDSDTDGQVFYKGPLVVLVDRFSASASEIFAAAMQDYGRALVVGEPTFGKGTVQQYRSLNRIYDQMLRPEWPALGSVQYTIQKFYRVNGGSTQRKGVTPDIIMPTGNEETETGEKFEDNALPWDSIDAATYVKSGDLTAFEPELLKEHNARIAKDPEFQNIMKDIARFNAMKDKRNIVSLNYAVREKENNEDDATRLARLNERFKREGKPELKKLDDLPKDYQEPDPYLDETVNIALDLAKLEKARPAEQPAPVK”, for which the “total protein half-life in vivo” value runs as follows: under setting [1], 6.08 ± 0.32 h; under setting [2], 6.08 ± 0.59 h; under setting [3], 6.0465 ± 0.0037 h; under setting [4], 6.36 ± 0.18 h; under setting [5], 5.95 ± 0.39 h; under setting [6], 2.99 ± 0.082 h. Moreover, the “total protein half-life in vivo” value by setting is: under setting [7], 5.66 ± 0.27 h; under setting [8], 10.9 ± 1.1 h; under setting [9], 6.13 ± 0.35 h; under setting [10], 12.8 ± 0.28 h; under setting [11], 5.879 ± 0.052 h; under setting [12], 12.9 ± 1.3 h.
“MRRANDPQRREKIIQATLEAVKLYGIHAVTHRKIATLAGVPLGSMTYYFSGIDELLLEAFSSFTEIMSRQYQAFFSDVSDAPGACQAITDMIYSSQVATPDNMELMYQLYALASRKPLLKTVMQNWMQRSQQTLEQWFEPGTARALDAFIEGMTLHFVTDRKPLSREEILRMVERVAG”: the “total protein half-life in vivo” value by setting is: under setting [1], 5.17 ± 0.91 h; under setting [2], 4.84 h; under setting [3], 4.98 ± 0.17 h; under setting [5], 4.87 ± 0.94 h; under setting [6], 2.46 ± 0.18 h; under setting [7], 4.6 h. For the same sequence, the “total protein half-life in vivo” value runs as follows: under setting [8], 5.18 h; under setting [9], 5.11 h; under setting [10], 8.57 h; under setting [11], 4.06 h; under setting [12], 6.17 ± 0.89 h.
As to “MKRPALILICLLLQACSATTKELGNSLWDSLFGTPGVQLTDDDIQNMPYASQYMQLNGGPQLFVVLAFAEDGQQKWVTQDQATLVTQHGRLVKTLLGGDNLIEVNNLAADPLIKPAQIVDGASWTRTMGWTEYQQVRYATARSVFKWDGTDTVKVGSDETPVRVLDEEVSTDQARWHNRYWIDSEGQIRQSEQYLGADYFPVKTTLIKAAKQ”, the “total protein half-life in vivo” value is 6.57 ± 0.37 h under setting [1], 6.43 h under setting [2], 6.59 ± 0.19 h under setting [4] and 5.12 ± 0.2 h under setting [5].
As to “MATIHVDGKEYEVNGADNLLEACLSLGLDIPYFCWHPALGSVGACRQCAVKQYQNAEDTRGRLVMSCMTPASDGTFISIDDEEAKQFRESVVEWLMTNHPHDCPVCEEGGNCHLQDMTVMTGHSFRRYRFTKRTHRNQDLGPFISHEMNRCIACYRCVRYYKDYADGTDLGVYGAHDNVYFGRPEDGTLESEFSGNLVEICPTGVFTDKTHSERYNRKWDMQFAPSICQQCSIGCNISPGERYGELRRIENRYNGTVNHYFLCDRGRFGYGYVNLKDRPRQPVQRRGDDFITLNAEQAMQGAADILRQSKKVIGIGSPRASVESNFALRELVGEENFYTGIAHGEQERLQLALKVLREGGIYTPALREIESYDAVLVLGEDVTQTGARVALAVRQAVKGKAREMAAAQKVADWQIAAILNIGQRAKHPLFVTNVDDTRLDDIAAWTYRAPVEDQARLGFAIAHALDNSAPAVDGIEPELQSKIDVIVQALAGAKKPLIISGTNAGSLEVIQAAANVAKALKGRGADVGITMIARSVNSMGLGIMGGGSLEEALTELETGRADAVVVLENDLHRHASAIRVNAALAKAPLVMVVDHQRTAIMENAHLVLSAASFAESDGTVINNEGRAQRFFQVYDPAYYDSKTVMLESWRWLHSLHSTLLSREVDWTQLDHVIDAVVAKIPELAGIKDAAPDATFRIRGQKLAREPHRYSGRTAMRANISVHEPRQPQDIDTMFTFSMEGNNQPTAHRSQVPFAWAPGWNSPQAWNKFQDEVGGKLRFGDPGVRLFETSENGLDYFTSVPARFQPQDGKWRIAPYYHLFGSDELSQRAPVFQSRMPQPYIKLNPADAAKLGVNAGTRVSFSYDGNTVTLPVEIAEGLTAGQVGLPMGMSGIAPVLAGAHLEDLKEAQQ”, the “total protein half-life in vivo” value came out at 6.02 ± 0.15 h under setting [1]; 5.98 ± 0.38 h under setting [2]; 6.1 ± 0.34 h under setting [3]; 5.92 ± 0.37 h under setting [4]; 5.61 ± 0.29 h under setting [5]; 3.14 ± 0.12 h under setting [6]. The “total protein half-life in vivo” value by setting is: under setting [7], 5.723 ± 0.011 h; under setting [8], 10.3 ± 0.23 h; under setting [9], 5.63 ± 0.15 h; under setting [10], 11 ± 0.17 h; under setting [11], 5.72 ± 0.076 h; under setting [12], 10.25 ± 0.082 h.
In the case of “MALYTIGEVALLCDINPVTLRAWQRRYGLLKPQRTDGGHRLFNDADIDRIREIKRWIDNGVQVSKVKMLLSNENVDVQNGWRDQQETLLTYLQSGNLHSLRTWIKERGQDYPAQTLTTHLFIPLRRRLQCQQPTLQALLAILDGVLINYIAICLASARKKQGKDALVVGWNIQDTTRLWLEGWIASQQGWRIDVLAHSLNQLRPELFEGRTLLVWCGENRTSAQQQQLTSWQEQGHDIFPLGI”, the “total protein half-life in vivo” value runs as follows: under setting [2], 1.79 h; under setting [3], 1.66 h; under setting [4], 3.39 ± 0.71 h; under setting [5], 1.34 ± 0.26 h; under setting [6], 1.64 ± 0.79 h; under setting [7], 3.86 ± 0.76 h. For the same sequence, the “total protein half-life in vivo” value by setting is: under setting [8], 4.23 ± 0.31 h; under setting [9], 2.04 h; under setting [10], 2.49 h; under setting [11], 1.98 h; under setting [12], 3.04 ± 0.58 h.
On to “MPEGPEIRRAADNLEAAIKGKPLTDVWFAFPQLKPYQSQLIGQHVTHVETRGKALLTHFSNDLTLYSHNQLYGVWRVVDTGEEPQTTRVLRVKLQTADKTILLYSASDIEMLTPEQLTTHPFLQRVGPDVLDPNLTPEVVKERLLSPRFRNRQFAGLLLDQAFLAGLGNYLRVEILWQVGLTGNHKAKDLNAAQLDALAHALLEIPRFSYATRGQVDENKHHGALFRFKVFHRDGEPCERCGSIIEKTTLSSRPFYWCPGCQH”, for which the “total protein half-life in vivo” value under setting [1] turned out to be 5.54 ± 0.6 h; the “total protein half-life in vivo” value under setting [2] worked out at 5.55 ± 0.23 h; the “total protein half-life in vivo” value under setting [3] came out at 6.197 ± 0.018 h; the “total protein half-life in vivo” value under setting [4] turned out to be 6.19 ± 0.85 h; the “total protein half-life in vivo” value under setting [5] stood at 4.38 ± 0.63 h; the “total protein half-life in vivo” value under setting [6] was found to be 2.36 ± 0.55 h. For the same sequence, the “total protein half-life in vivo” value by setting is: under setting [8], 9.48 h; under setting [9], 5.45 h; under setting [10], 11 ± 0.57 h; under setting [12], 7.33 h.
